By EC50 is commonly meant the concentration giving half of the maximal effect. Low values mean greater potency, high ones weaker potency.

No end group written: not given here. *: point of attachment. Biotin = O=C1N[C@H]2[C@H](CS[C@H]2CCCCC(=O)*)N1

Assay [1] addresses T1, Biotin PSGL-1(42-62) peptide, unmodified (human, C-terminal Lys-biotin).
T1 construct: Residues 42-62 followed by GGGK-biotin; also called WT; wild-type
T1 peptide: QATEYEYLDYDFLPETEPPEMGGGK
Briefly: ELISA, plate-bound target. As for the experimental part: (§1) Two ELISA methods were performed. One procedure detected mAb binding to its plate-immobilized target and the other measured the immobilized antibody's ability to capture biotinylated PSGL-1₄₂₋₆₂. […] The plate was incubated for 45 min at 37° C. Plates were washed 3 times with wash buffer (PBS containing 0.05% tween 20, pH 7.4) and a single concentration (2 to 500 nM) or serially diluted (0.002-100 nM) anti-PSGL-1 mAb was added (25 ul/well) in assay buffer into appropriate wells. The plate was incubated for 45 min at 37° C., washed 3 times, and an appropriate HRP-conjugated secondary antibody added (25 ul/well) (HRP goat anti-mouse or anti-human IgG). After 45 min incubation at 37° C., the plate was washed, and antibody bound to plate-immobilized target was determined at A450 nm using HRP substrate (3,3′,5,5′-etramethylbenzidine (TMB)). For each antibody, duplicate values were averaged and assay background was subtracted. Except for the following, ELISAs involving plate-immobilized mAb capturing of biotinylated PSGL-1₄₂₋₆₂ peptides was performed in the same manner as described above: 3 ug/mL/25 ul per well of mAb was coated directly onto microtiter plate wells; biotinylated unmodified or sulfotyrosine PSGL-1₄₂₋₆₂ was serially diluted (3 nM-3 uM) into appropriate wells, and antibody-bound peptide was detected using HRP-streptavidin (Jackson Immunoresearch, Cat. #016-030-084).

Assay [2] concerns the target T2, Biotin Y46,48,51(SO3) PSGL-1(42-62) peptide (human, sulfotyrosine at Y46, Y48 and Y51; C-terminal Lys-biotin).
T2 construct: also called fully sulfated N-terminal PSGL-1 peptide
T2 peptide: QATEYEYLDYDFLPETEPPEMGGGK
Briefly: ELISA, plate-bound target. As for the experimental part:
as §1
On the technique in general: In an ELISA, binding on a coated surface is turned into a signal by an enzyme label.

The target of assay [3] is T3, T57A (C-terminal Lys-biotin).
T3 construct: alanine-scan peptide; also called Biotin PSGL-1(42-62) T57A peptide; 57T
T3 peptide: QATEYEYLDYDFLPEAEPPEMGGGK
Briefly: alanine-scan ELISA, streptavidin-immobilized biotin peptide.

Assay [4] has as its target T4, E58A (C-terminal Lys-biotin).
T4 construct: alanine-scan peptide; also called Biotin PSGL-1(42-62) E58A peptide; 58E
T4 peptide: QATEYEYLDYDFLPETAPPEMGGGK
The description is as above.

For assay [5], the target named is T5, P59A (C-terminal Lys-biotin).
T5 construct: alanine-scan peptide; also called Biotin PSGL-1(42-62) P59A peptide; 59P
T5 peptide: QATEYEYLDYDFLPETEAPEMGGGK
Described as above.

The target of assay [6] is T6, Q42A (C-terminal Lys-biotin).
T6 construct: alanine-scan peptide; also called Biotin PSGL-1(42-62) Q42A peptide; 42Q
T6 peptide: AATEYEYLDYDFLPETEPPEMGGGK
The description is as above.

Assay [7] has as its target T7, P60A (C-terminal Lys-biotin).
T7 construct: alanine-scan peptide; also called Biotin PSGL-1(42-62) P60A peptide; 60P
T7 peptide: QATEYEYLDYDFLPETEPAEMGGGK
Described as above.

The target in assay [8] is T8, M62A (C-terminal Lys-biotin).
T8 construct: alanine-scan peptide; also called Biotin PSGL-1(42-62) M62A peptide; 62M
T8 peptide: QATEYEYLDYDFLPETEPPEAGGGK
The assay is described as above.

The target of assay [9] is T9, Biotin PSGL-1(42-62) Y46A peptide (C-terminal Lys-biotin).
T9 peptide: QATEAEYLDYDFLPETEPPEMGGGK
Described as above.

For assay [10], the target named is T10, T44A (C-terminal Lys-biotin).
T10 construct: alanine-scan peptide; also called Biotin PSGL-1(42-62) T44A peptide; 44T
T10 peptide: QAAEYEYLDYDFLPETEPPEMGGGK
Described as above.

In assay [11] the target is T11, Y48A (C-terminal Lys-biotin).
T11 construct: alanine-scan peptide; also called Biotin PSGL-1(42-62) Y48A peptide; 48Y
T11 peptide: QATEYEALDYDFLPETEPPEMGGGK
The description is as above.

For assay [12], the target named is T12, Biotin PSGL-1(42-62) Y51A peptide (C-terminal Lys-biotin).
T12 peptide: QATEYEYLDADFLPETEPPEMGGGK
The assay is described as above.

Assay [13] concerns the target T13, E47A (C-terminal Lys-biotin).
T13 construct: alanine-scan peptide; also called Biotin PSGL-1(42-62) E47A peptide; 47E
T13 peptide: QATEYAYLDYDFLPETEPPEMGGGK
The description is as above.

The target in assay [14] is T14, Biotin PSGL-1(42-62) E45A peptide (C-terminal Lys-biotin).
T14 peptide: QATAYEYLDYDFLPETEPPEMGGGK
Described as above.

The target in assay [15] is T15, E61A (C-terminal Lys-biotin).
T15 construct: alanine-scan peptide; also called Biotin PSGL-1(42-62) E61A peptide; 61E
T15 peptide: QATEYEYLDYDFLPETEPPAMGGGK
The assay is described as above.

Assay [16] has as its target T16, Biotin PSGL-1(56-70) peptide (human).
T16 peptide: Ac-ETEPPEMLRNSTDTTGK(Biotin)
Briefly: ELISA, plate-bound biotin peptide.

B1: 20I15 (antibody, V domains shown)
VH: EVKLVESGGGLVQPGGSLSLSCAASGFTFTDYYMSWVRQPPGKALEWLGFIRNKANGYTTEYSASVKGRFTISRDNSQSILYLQMNALRAEDSATYYCARTYLRRGYFDVWGTGTTVTVSS
VL: DIVLTQSPASLAVSLGQRATISCRASKSVSTSGYSYMHWFQQKPGQPPKLLIYLASNLESGVPARFSGSGSGTDFTLNIHPVEEEDAATYYCQHSRELPLTFGAGTKLELK
notes: From mouse immunisation; only variable domains given; also called 20115
Take B1: the EC50 in [1] is roughly 30 nM; in assay [2] it was 0.62 nM.

B2: 10F01 (antibody, IgG4, V domains shown)
VH: EVQLVQSGGGLVQPGGSLRLSCAASGFTFSSYAMSWVRQAPGKGLEWVSALRGGDGGTYHADSVKGRFTISGDSSKNTLYLQMNSLRAEDTAVYYCARRMVGAAYAFDIWGQGTMVTVSS
VL: LPVLTQPHSVSESPGKTVTISCTRSSGSIADNFVQWYRQRPGSAPTTVIYEGDQRPSGVPGRFSGSIDSSSNSASLTISGLQTDDEADYYCQSFDSYNRRTHVVFGGGTKLTVL
For B2, the EC50 is greater than 500 nM in [1] and 0.13 nM in [2].

B3: 03D07 (antibody, IgG4, V domains shown)
VH: EVKLLESGGGLVQPGGSLRLSCAASGFTFSSYALSWVRQAPGKGLEWVSAISGSGGNTYYADSVKGRFTISRDNSKNTLYLQMNSLRAEDTAVYYCAKVVGATNYWGQGTLVTVSS
VL: DIVMTQTPLSLPVTLGQPASISCRSSQSLVYSDGHTYLSWFHQRPGQSPRRLIYKVSIRDSGVPDRFSGSGSGTDFTLKISRVEAEDVGVYYCMQRLQIPLTFGGGTKVEIK
For B3, the EC50 in assay [1] was greater than 20 nM; in assay [2], 0.13 nM.

B4: 18F02 (antibody, V domains shown)
VH: QVQLQQPGAELVKPGASVKLSCKASGYTFTSYWMHWVKQRPGQGLEWIGMIHPNSGRTNYNEKFKSKATLTVDKSSSTAYMQLSSLTSEDSAVYYCARSDYWGQGTTLTVSS
VL: DIVMTQAAFSNPVTLGTSASISCRSSKSLLHSDGITYLYWFLQRPGQSPQLLIYRMSNLASGVPDRFSGSGSGTDFTLRISRVEAEDVGVYYCAQMLEFPRTFGGGTKLEIK
notes: From mouse immunisation; only variable domains given
B4: the binding result in [3], in assay [4], in assay [5], in [6], in assay [7] and in assay [8] was “binds” in each case. Further, the binding result in assay [9], in assay [10], in assay [11], in assay [12], in [13] and in assay [14] was “binds” throughout. Moreover, in assay [15], the binding result is given as “binds”.

B5: 2E12 (antibody, V domains shown)
VH: QVQLQQSGAELARPGASVKLSCKASGYTFTNYGLNWVKQRTGQGLEWIGEIYPRSGNTYYNEKFKGKATLTADKSSSTAYMQLSSLTSEDSAVYFCATEGAYWGQGTLVTVSA
VL: DIVMTQTPLTLSVTIGQPASISCKSSQSLLHGNGKTYLNWLLQRPGQSPKLLIYLVSKLESGIPDRFSGSGSGTDFTLEISRVEAEDLGIYYCLQSTHFPRTFGGGTKLEIK
notes: Mouse hybridoma mAb; only variable domains given
Regarding B5, the binding result in assay [16] is “binds”.

B6: 5E12 (antibody, V domains shown)
VH: EIQLQQSGAELVRPGASVKLSCTASGFNIKDDYIHWVKQRPEQGLEWIGRIDPANGNTKSAPKFQDKATITADTSSNTAYLHLSSLTSEDTAVYYCSIRFAYWGQGTLVTVSA
VL: DVVMTQTPLSLSVSLGDQASISCRSSQSLVYRNGDTYLHWFLQKPGQSPKLLIYKVSNRFSGVPDRFSGSGSGTDFTLKISRVEAEDLGIYFCSQNTHVPYTFGGGTKLEIK
notes: as for B5
B6: the binding result in assay [16] is on record as “binds”.

B7: 43B6 (antibody, V domains shown)
VH: EVQLQQSGPDLVKPGALVKISCKASGYSFTAYYIHWVKQSHGKSLEWIGRVNPNTGGTSYNPKFKGKAILNVDKSSSTAYMELRSLTSEDSAVYYCARSGSPYYRYDDWGQGTTLTVSS
VL: ENVLTQSPAIMSASPGEKVTMTCRASSTVNSTYLHWFQQKSGASPKLWIYGSSNLASGVPARFSGSGSGTSYSLTISSVEAEDAATYYCQQYSGYPLTFGAGTTLELK
notes: Control anti-PSGL-1 mAb, recombinant; only variable domains given; also called 43B3
On to B7, for which the binding result in assay [3], in [4], in assay [5], in assay [6], in assay [7] and in [8] was “binds” in each case. Moreover, the binding result in assay [9], in assay [10], in assay [11], in assay [12], in assay [13] and in [14] was “binds” each time. Further, the binding result in assay [15] was “binds”.
